Assay results: patent US20230002466A1 (ELPIS BIOPHARMACEUTICALS, published 2023)

T1: human IL2Rα (human, UniProt P01589 22-213, limits assumed)
T1 construct: also called IL2α; CD25
T1 sequence (looked up): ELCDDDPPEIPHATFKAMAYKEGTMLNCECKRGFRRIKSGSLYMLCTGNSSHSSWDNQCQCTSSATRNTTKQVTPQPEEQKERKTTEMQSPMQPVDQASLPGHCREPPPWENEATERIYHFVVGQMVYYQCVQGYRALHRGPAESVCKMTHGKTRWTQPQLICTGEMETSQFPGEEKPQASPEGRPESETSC

T2: human IL2Rβ Fc fusion protein (human, UniProt P14784 27-239)
T2 construct: also called Recombinant Fc-tagged human IL2Rβ; not shown: Fc
T2 sequence (looked up): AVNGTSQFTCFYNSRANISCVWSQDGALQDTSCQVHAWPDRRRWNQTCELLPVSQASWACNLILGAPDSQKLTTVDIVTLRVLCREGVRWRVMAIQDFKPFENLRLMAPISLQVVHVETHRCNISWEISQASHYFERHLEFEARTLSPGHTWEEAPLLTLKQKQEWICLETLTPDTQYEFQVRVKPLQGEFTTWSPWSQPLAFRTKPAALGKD

T3: human IL2Rα Fc fusion protein (human, UniProt P01589 22-213, limits assumed)
T3 construct: also called Recombinant Fc-tagged human IL2Rα; not shown: Fc
T3 sequence (looked up): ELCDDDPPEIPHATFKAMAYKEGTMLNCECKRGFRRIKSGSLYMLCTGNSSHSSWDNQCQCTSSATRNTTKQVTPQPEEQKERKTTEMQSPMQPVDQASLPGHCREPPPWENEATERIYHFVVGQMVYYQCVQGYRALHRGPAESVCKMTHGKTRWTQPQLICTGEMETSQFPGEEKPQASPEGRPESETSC

T4: human IL2Rβ (human, UniProt P14784 27-239)
T4 construct: also called IL2β; CD122
T4 sequence (looked up): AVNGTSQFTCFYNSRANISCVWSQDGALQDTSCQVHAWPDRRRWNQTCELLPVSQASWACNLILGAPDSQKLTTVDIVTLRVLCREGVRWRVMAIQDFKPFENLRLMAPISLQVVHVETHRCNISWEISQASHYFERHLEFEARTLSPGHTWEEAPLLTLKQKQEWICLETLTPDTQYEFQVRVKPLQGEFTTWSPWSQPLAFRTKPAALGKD


How the values were obtained:
human IL2Rα [1] = target: T1, human IL2Rα; experiment: SPR (Biacore T200), human IL2Rα, one trace per clone drawn, concentrations not printed (Example 13)
[2] = target: T2, human IL2Rβ Fc fusion protein; experiment: ELISA, Fc-tagged receptor coated, anti-HisTag-HRP
Protocol: (§1) Recombinant Fc-tagged human IL2Rα and IL2Rβ were added in 25 uL of 1×PBS to wells of 384-well plate and incubated overnight at 4° C. to coat the plates. Plates were washed three times with 0.05% Tween20/1×PBS. Plates were blocked with 100 uL of SuperBlock for 1 hr at RT and then washed 3 times with 0.05% Tween20/1×PBS. IL2 mutants were diluted in 0.05% Tween 20/1×PBS from 1000 nM to 0 nM and added to plates for 2 hrs at room temperature. Plates were then washed 6 times with 0.05% Tween20/1×PBS. Anti-HisTag-HRP was diluted 1:5000 in 0.05% Tween20/1×PBS and added to plates for 1 hr at RT. Plates were then washed 6 times with 0.05% Tween 20/1×PBS, and TMB was added to develop blue color. Reactions were stopped with 2N […] and light absorbance at 450 nm was read on a BioTek plate reader.

[3] = target: T3, human IL2Rα Fc fusion protein; experiment: ELISA, single point, Fc-tagged human IL2Rα coated, anti-His-HRP; concentration not printed (Example 14)
Protocol: as §1

human IL2Rα [4] = target: T1, human IL2Rα; experiment: IL2Rα binding ELISA with E. coli culture supernatant of the clone; hFc bar as control (Example 2)
human IL2Rα [5] = target: T1, human IL2Rα; experiment: SPR, IL2Rα captured on Protein A chip, IL2 at 100 nM
Protocol: The binding kinetics of IL2Rα-reduced binding clones to IL2Rα was assessed utilizing SPR technology with a Biacore T200, software version 2.0. For each cycle, 1 ug/mL of human IL2Rα was captured for 60 seconds at a flow rate of 10 uL/min on flow cell 2 in 1×HBSP buffer on a Protein A sensor chip. 100 nM of each HIS and Flag tag purified IL2 mutant was injected onto both the reference flow cell 1 and IL2Rα captured flow cell 2 for 150 seconds at a flow rate of 30 uL/min followed by washing for 300 seconds. The flow cells were then regenerated with Glycine pH 2.0 for 60 seconds at a flow rate of 30 uL/min. A HBSP+ buffer was included with each sample as a baseline control. The assay was set up in a 96-well format. The kinetics data was analyzed with Biacore T200 evaluation software 3.0. The specific binding response unit was derived from subtraction of binding to reference flow cell 1 from IL2Rα flow cell 2 and subtraction of buffer control. […] Relative response (RU) was determined for each IL2Rα-reduced binding clone (FIG. 4, Table 3).

human IL2Rβ = target: T4, human IL2Rβ; experiment: SPR, single concentration

Binder | binding result (human IL2Rα [1]) | EC50 [2] [nM] | binding result [3] | RU (at 100 nM) (human IL2Rα [5]) [RU] | Relevant binding to WT IL2 (%) (human IL2Rα [5]) | Kd (human IL2Rβ) [nM] | binding result (human IL2Rα [4])
EP340 (ligand, not shown: His and Flag tags) APTSSSTKKTQLQLEHLLLDLQMILNGINNYKNPLLTDMLTRKFYMPKKATELKHLQCLEEELKPLEEVLNLAQSKNFHLTPRDAIDNIRVIILELKGSETTFMCEYADETATIVEFLNRWITFCQSIISTLT | no binding (tested: not printed) | 185 | no binding (tested: not printed) | – | – | – | –
EP123 (ligand) APTSSSTKKTQLQLEHLLLDLQMILNGINNYKNPKLTVMLTFKFFMPKKATELKHLQCLEEELKPLEEVLNLAQSKNFHLRPRDLISNINVIVLELKGSETTFMCEYADETATIVEFLNRWITFSQSIISTLT | – | – | – | 5.3 | 3.73 | – | no binding (tested: supernatant, concentration not given)

Further lines, with some results ahead:

binding result (human IL2Rα [1]) | EC50 [2] [nM] | binding result [3] | RU (at 100 nM) (human IL2Rα [5]) [RU] | Relevant binding to WT IL2 (%) (human IL2Rα [5]) | Kd (human IL2Rβ) [nM] | Binder | binding result (human IL2Rα [4])
– | – | – | 2.5 | 1.76 | – | EP122 (ligand) APTSSSTKKTQLQLEHLLLDLQMILNGINNYKNPKLTVMLTFKFPMPKKATELKHLQCLEEELKPLEEVLNLAQSKNFHLRPRDLISNINVIVLELKGSETTFMCEYADETATIVEFLNRWITFSQSIISTLT | no binding (tested: supernatant, concentration not given)
– | 948 | – | – | – | 2.79 | EP349 (ligand) APTSSSTKKTQLQLEHLLLDLQMILNGINNYKNPKLTRMLTAKFYMPKKATELKHLQCLEEELKPLEEVLNLAQSKNFHLTARDAIDNINVIVQELKGSETTFMCEYADETATIVEFLNRWITFSQSIISTLTGSHHHHHH | –
